Measurements as given in patent US20240327535A1 (EISAI R AND D MANAGEMENT, published 2024).

T1: extracellular domain of human BCMA (human, UniProt Q02223 1-54)
T1 construct: amine-linked to Octet AR2G tips; also called hsBCMA; BCMA (human)
T1 sequence: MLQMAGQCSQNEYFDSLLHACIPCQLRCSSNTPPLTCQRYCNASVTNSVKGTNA


Target: T1, extracellular domain of human BCMA
Test: Octet BLI; Fab 200 nM

| Binder | Kd [nM] |
| --- | --- |
| AB200-R1H26-R2Vk29 (Fab, V domains shown) VH: QVQLVQSGAEVKKPGSSVKVSCKASGGSFSNYWMHWVRQAPGQGLEWMGATYRIHSDTFYNQKFKGRVTITADKSTSTAYMELSSLRSEDTAVYYCARGAIYHGYDVLDNWGQGTLVTVSS VL: DIQMTQSPSSLSASVGDRVTITCRASQSISSYLNWYQQKPGKAPKLLIYATSNLQIGVPSRFSGSGSGTDFTLTISSLQPEDFATYYCQQYRRLPWSFGQGTKLEIKR | 1.18 |
| AB200-R1H26-R2Vk14 (Fab, V domains shown) VH: QVQLVQSGAEVKKPGSSVKVSCKASGGSFSNYWMHWVRQAPGQGLEWMGATYRIHSDTFYNQKFKGRVTITADKSTSTAYMELSSLRSEDTAVYYCARGAIYHGYDVLDNWGQGTLVTVSS VL: DIQMTQSPSSLSASVGDRVTITCRASQSISSYINWYQQKPGKAPKLLIYAASSLQSGVPSRFSGSGSGTDFTLTISSLQPEDFATYYCQQYRRLPWSFGQGTKLEIKR | 2.52 |
| AB200-R1H26-R2Vk2 (Fab, V domains shown) VH: QVQLVQSGAEVKKPGSSVKVSCKASGGSFSNYWMHWVRQAPGQGLEWMGATYRIHSDTFYNQKFKGRVTITADKSTSTAYMELSSLRSEDTAVYYCARGAIYHGYDVLDNWGQGTLVTVSS VL: DIQMTQSPSSLSASVGDRVTITCRASQSISSYINWYQQKPGKAPKLLIYAASSLQSGVPSRFSGSGSGTDFTLTISSLQPEDFATYYCQQFRKLPWSFGQGTKLEIKR | 2.37 |
| AB200-R1H26-R2Vk39 (Fab, V domains shown) VH: QVQLVQSGAEVKKPGSSVKVSCKASGGSFSNYWMHWVRQAPGQGLEWMGATYRIHSDTFYNQKFKGRVTITADKSTSTAYMELSSLRSEDTAVYYCARGAIYHGYDVLDNWGQGTLVTVSS VL: DIQMTQSPSSLSASVGDRVTITCRASQSISSYINWYQQKPGKAPKLLIYATSNIQSGVPSRFSGSGSGTDFTLTISSLQPEDFATYYCQQYRRLPWSFGQGTKLEIKR | 1.83 |
| AB200-R1H26-R2Vk33 (Fab, V domains shown) VH: QVQLVQSGAEVKKPGSSVKVSCKASGGSFSNYWMHWVRQAPGQGLEWMGATYRIHSDTFYNQKFKGRVTITADKSTSTAYMELSSLRSEDTAVYYCARGAIYHGYDVLDNWGQGTLVTVSS VL: DIQMTQSPSSLSASVGDRVTITCRASQSISSYLNWYQQKPGKAPKLLIYATSNLQIGVPSRFSGSGSGTDFTLTISSLQPEDFATYYCQQFRKIPWTFGQGTKLEIKR | 1.74 |
| AB200-R1H26-R2Vk42 (Fab, V domains shown) VH: QVQLVQSGAEVKKPGSSVKVSCKASGGSFSNYWMHWVRQAPGQGLEWMGATYRIHSDTFYNQKFKGRVTITADKSTSTAYMELSSLRSEDTAVYYCARGAIYHGYDVLDNWGQGTLVTVSS VL: DIQMTQSPSSLSASVGDRVTITCRASQSISSYINWYQQKPGKAPKLLIYATSNIQSGVPSRFSGSGSGTDFTLTISSLQPEDFATYYCQQYRKIPWSFGQGTKLEIKR | 2.42 |
| AB200-R1H26-R2Vk43 (Fab, V domains shown) VH: QVQLVQSGAEVKKPGSSVKVSCKASGGSFSNYWMHWVRQAPGQGLEWMGATYRIHSDTFYNQKFKGRVTITADKSTSTAYMELSSLRSEDTAVYYCARGAIYHGYDVLDNWGQGTLVTVSS VL: DIQMTQSPSSLSASVGDRVTITCRASQSISSYINWYQQKPGKAPKLLIYATSNIQSGVPSRFSGSGSGTDFTLTISSLQPEDFATYYCQQFRKIPWTFGQGTKLEIKR | 3.23 |
| AB200-R1H26-R2Vk34 (Fab, V domains shown) VH: QVQLVQSGAEVKKPGSSVKVSCKASGGSFSNYWMHWVRQAPGQGLEWMGATYRIHSDTFYNQKFKGRVTITADKSTSTAYMELSSLRSEDTAVYYCARGAIYHGYDVLDNWGQGTLVTVSS VL: DIQMTQSPSSLSASVGDRVTITCRASQSISSYINWYQQKPGKAPKLLIYATSNLQSGVPSRFSGSGSGTDFTLTISSLQPEDFATYYCQQYRRLPWSFGQGTKLEIKR | 1.55 |
| AB200-R1H26-R2Vk47 (Fab, V domains shown) VH: QVQLVQSGAEVKKPGSSVKVSCKASGGSFSNYWMHWVRQAPGQGLEWMGATYRIHSDTFYNQKFKGRVTITADKSTSTAYMELSSLRSEDTAVYYCARGAIYHGYDVLDNWGQGTLVTVSS VL: DIQMTQSPSSLSASVGDRVTITCRASQSISSYINWYQQKPGKAPKLLIYATSNLQIGVPSRFSGSGSGTDFTLTISSLQPEDFATYYCQQYRKIPWSFGQGTKLEIKR | 1.73 |
| AB200-R1H26-R2Vk46 (Fab, V domains shown) VH: QVQLVQSGAEVKKPGSSVKVSCKASGGSFSNYWMHWVRQAPGQGLEWMGATYRIHSDTFYNQKFKGRVTITADKSTSTAYMELSSLRSEDTAVYYCARGAIYHGYDVLDNWGQGTLVTVSS VL: DIQMTQSPSSLSASVGDRVTITCRASQSISSYINWYQQKPGKAPKLLIYATSNLQIGVPSRFSGSGSGTDFTLTISSLQPEDFATYYCQQFRRLPWTFGQGTKLEIKR | 1.35 |
| AB200-R1H26-R2Vk45 (Fab, V domains shown) VH: QVQLVQSGAEVKKPGSSVKVSCKASGGSFSNYWMHWVRQAPGQGLEWMGATYRIHSDTFYNQKFKGRVTITADKSTSTAYMELSSLRSEDTAVYYCARGAIYHGYDVLDNWGQGTLVTVSS VL: DIQMTQSPSSLSASVGDRVTITCRASQSISSYINWYQQKPGKAPKLLIYATSNLQIGVPSRFSGSGSGTDFTLTISSLQPEDFATYYCQQYRRIPWTFGQGTKLEIKR | 1.57 |
| AB200-R1H26-R2Vk40 (Fab, V domains shown) VH: QVQLVQSGAEVKKPGSSVKVSCKASGGSFSNYWMHWVRQAPGQGLEWMGATYRIHSDTFYNQKFKGRVTITADKSTSTAYMELSSLRSEDTAVYYCARGAIYHGYDVLDNWGQGTLVTVSS VL: DIQMTQSPSSLSASVGDRVTITCRASQSISSYINWYQQKPGKAPKLLIYATSNIQSGVPSRFSGSGSGTDFTLTISSLQPEDFATYYCQQYRRIPWTFGQGTKLEIKR | 2.34 |
| AB200-R1H26-R2Vk38 (Fab, V domains shown) VH: QVQLVQSGAEVKKPGSSVKVSCKASGGSFSNYWMHWVRQAPGQGLEWMGATYRIHSDTFYNQKFKGRVTITADKSTSTAYMELSSLRSEDTAVYYCARGAIYHGYDVLDNWGQGTLVTVSS VL: DIQMTQSPSSLSASVGDRVTITCRASQSISSYINWYQQKPGKAPKLLIYATSNLQSGVPSRFSGSGSGTDFTLTISSLQPEDFATYYCQQFRKIPWTFGQGTKLEIKR | 2.85 |
| AB200-R1H26-R2Vk32 (Fab, V domains shown) VH: QVQLVQSGAEVKKPGSSVKVSCKASGGSFSNYWMHWVRQAPGQGLEWMGATYRIHSDTFYNQKFKGRVTITADKSTSTAYMELSSLRSEDTAVYYCARGAIYHGYDVLDNWGQGTLVTVSS VL: DIQMTQSPSSLSASVGDRVTITCRASQSISSYLNWYQQKPGKAPKLLIYATSNLQIGVPSRFSGSGSGTDFTLTISSLQPEDFATYYCQQYRKIPWSFGQGTKLEIKR | 1.93 |
| AB200-R1H26-R2Vk35 (Fab, V domains shown) VH: QVQLVQSGAEVKKPGSSVKVSCKASGGSFSNYWMHWVRQAPGQGLEWMGATYRIHSDTFYNQKFKGRVTITADKSTSTAYMELSSLRSEDTAVYYCARGAIYHGYDVLDNWGQGTLVTVSS VL: DIQMTQSPSSLSASVGDRVTITCRASQSISSYINWYQQKPGKAPKLLIYATSNLQSGVPSRFSGSGSGTDFTLTISSLQPEDFATYYCQQYRRIPWTFGQGTKLEIKR | 1.76 |
| AB200-R1H26-R2Vk36 (Fab, V domains shown) VH: QVQLVQSGAEVKKPGSSVKVSCKASGGSFSNYWMHWVRQAPGQGLEWMGATYRIHSDTFYNQKFKGRVTITADKSTSTAYMELSSLRSEDTAVYYCARGAIYHGYDVLDNWGQGTLVTVSS VL: DIQMTQSPSSLSASVGDRVTITCRASQSISSYINWYQQKPGKAPKLLIYATSNLQSGVPSRFSGSGSGTDFTLTISSLQPEDFATYYCQQFRRLPWTFGQGTKLEIKR | 1.67 |
| AB200-R1H26-R2Vk41 (Fab, V domains shown) VH: QVQLVQSGAEVKKPGSSVKVSCKASGGSFSNYWMHWVRQAPGQGLEWMGATYRIHSDTFYNQKFKGRVTITADKSTSTAYMELSSLRSEDTAVYYCARGAIYHGYDVLDNWGQGTLVTVSS VL: DIQMTQSPSSLSASVGDRVTITCRASQSISSYINWYQQKPGKAPKLLIYATSNIQSGVPSRFSGSGSGTDFTLTISSLQPEDFATYYCQQFRRLPWTFGQGTKLEIKR | 1.87 |
| AB200-R1H26-R2Vk30 (Fab, V domains shown) VH: QVQLVQSGAEVKKPGSSVKVSCKASGGSFSNYWMHWVRQAPGQGLEWMGATYRIHSDTFYNQKFKGRVTITADKSTSTAYMELSSLRSEDTAVYYCARGAIYHGYDVLDNWGQGTLVTVSS VL: DIQMTQSPSSLSASVGDRVTITCRASQSISSYLNWYQQKPGKAPKLLIYATSNLQIGVPSRFSGSGSGTDFTLTISSLQPEDFATYYCQQYRRIPWTFGQGTKLEIKR | 1.74 |
| AB200-R1H26-R2Vk44 (Fab, V domains shown) VH: QVQLVQSGAEVKKPGSSVKVSCKASGGSFSNYWMHWVRQAPGQGLEWMGATYRIHSDTFYNQKFKGRVTITADKSTSTAYMELSSLRSEDTAVYYCARGAIYHGYDVLDNWGQGTLVTVSS VL: DIQMTQSPSSLSASVGDRVTITCRASQSISSYINWYQQKPGKAPKLLIYATSNLQIGVPSRFSGSGSGTDFTLTISSLQPEDFATYYCQQYRRLPWSFGQGTKLEIKR | 1.28 |
| AB200-R1H26-R2Vk37 (Fab, V domains shown) VH: QVQLVQSGAEVKKPGSSVKVSCKASGGSFSNYWMHWVRQAPGQGLEWMGATYRIHSDTFYNQKFKGRVTITADKSTSTAYMELSSLRSEDTAVYYCARGAIYHGYDVLDNWGQGTLVTVSS VL: DIQMTQSPSSLSASVGDRVTITCRASQSISSYINWYQQKPGKAPKLLIYATSNLQSGVPSRFSGSGSGTDFTLTISSLQPEDFATYYCQQYRKIPWSFGQGTKLEIKR | 2.3 |
| AB200-R1H26-R2Vk31 (Fab, V domains shown) VH: QVQLVQSGAEVKKPGSSVKVSCKASGGSFSNYWMHWVRQAPGQGLEWMGATYRIHSDTFYNQKFKGRVTITADKSTSTAYMELSSLRSEDTAVYYCARGAIYHGYDVLDNWGQGTLVTVSS VL: DIQMTQSPSSLSASVGDRVTITCRASQSISSYLNWYQQKPGKAPKLLIYATSNLQIGVPSRFSGSGSGTDFTLTISSLQPEDFATYYCQQFRRLPWTFGQGTKLEIKR | 1.1 |
| AB200-R1H26-R2Vk48 (Fab, V domains shown) VH: QVQLVQSGAEVKKPGSSVKVSCKASGGSFSNYWMHWVRQAPGQGLEWMGATYRIHSDTFYNQKFKGRVTITADKSTSTAYMELSSLRSEDTAVYYCARGAIYHGYDVLDNWGQGTLVTVSS VL: DIQMTQSPSSLSASVGDRVTITCRASQSISSYINWYQQKPGKAPKLLIYATSNLQIGVPSRFSGSGSGTDFTLTISSLQPEDFATYYCQQFRKIPWTFGQGTKLEIKR | 2.31 |
